According to US20240390459A1, “ANTI-DEPRESSION AND ANTI-ANXIETY APPLICATION OF POLYPEPTIDE AND COMPLEX” (SHENZHEN CHENYANG BIOLOGICAL TECHNOLOGY CO., LTD, priority 2021, published 2024):
Ends that are not written are not given here.

Assays:
[1] = target: T1, D1R from mouse hippocampus tissue (Mus musculus, UniProt Q61616); assay: GST pulldown analysis of mouse hippocampus tissue extract with Western blot; assay type: binding; details: 15 μg GST fusion protein, 500 μg mouse hippocampus tissue extract, overnight 4° C.
T1 construct: from tissue; host or cells: mouse hippocampus tissue extract
Source text: In order to confirm the interbinding site of the 5-HT2AR/D1R complex, the 5-HT2AR full-length cDNA clone (Genbank Accession No.: NM_001378924) was first amplified to obtain cDNA fragments of the CT region of 5-HT2AR (K385-V471) and the third intracellular loop (IL3) region of 5-HT2AR (F255-V324). These fragments were subcloned to the BamH1/EcoR1 or BamH1/Xho1 site of a pGEX-4T-3 plasmid (YouBio no: VT1255). The initial methionine residue and termination codon were incorporated as appropriate. All constructs were resequenced to confirm that splicing and fusion was achieved appropriately. The GST fusion protein containing the third intracellular loop (IL3) of 5-HT2AR (GST-5HT2AR-IL3) and the GST fusion protein containing the CT region of 5-HT2AR (GST-5HT2AR-CT) were expressed from E. coli BL21 viable cells (AlpalifeBio, no: KTSM104L) and purified from bacterial lysate solution.
500 μg of dissolved mouse hippocampus tissue extract was diluted with 1×PBS/1% Triton X-100 and then incubated overnight with 20 μl protein GST resin saturated GST protein or 15 μg GST fusion protein at 4° C. Beads were washed 1-8 times with 1×PBS/1% Triton X-100. Binding proteins were eluted with 2×loading buffer, separated by SDS-PAGE, and underwent Western blot with respective antibodies thereof.
According to the method in the present Example, a pulldown analysis was performed using a GST fusion protein containing a KV region of 5-HT2AR (GST-5HT2AR-KV), a GST fusion protein containing a NN region of 5-HT2AR (GST-5HT2AR-NN), and a GST fusion protein containing a DV region of 5-HT2AR (GST-5HT2AR-DV), and the results of Western blot were shown in FIG. 4 B.
According to the method in the present Example, a pulldown analysis was performed using a GST fusion protein containing a DA region of 5-HT2AR (GST-5HT2AR-DA), and a GST fusion protein containing a SV region of 5-HT2AR (GST-5HT2AR-SV), and the results of Western blot were shown in FIG. 4 C.

[2] = target: T2, 5-HT2AR/D1R complex (Mus musculus, UniProt Q61616); assay: Co-immunoprecipitation of hippocampus tissue from polypeptide-treated mice; assay type: in vivo; details: single intraperitoneal administration 3 nmol/g, 1 hour after treatment, control TAT only
T2 construct: Co-immunoprecipitation was performed using protein samples (100-500 μg protein) from mouse hippocampus tissue; from tissue; host or cells: hippocampus tissue of treated mice (naive, CRS, CMS, CSDS)
Protocol: (§1) Co-immunoprecipitation was performed using protein samples (100-500 μg protein) from mouse hippocampus tissue. Precipitation was performed using a mouse antibody against 5-HT2AR (SantaCruz Biotechnology, sc-166775) and 25 μl protein A/G plus agarose bead slurry (santaCruz Biotechnology, sc-2001).
(§2) Western blot analysis was carried out after precipitation: the denatured protein was separated on 8% SDS-PAGE gel, then transferred to cellulose nitrate membrane and blocked with TBST; then incubated with mouse antibodies against D1R (SantaCruz Biotechnology, sc-33660) and D2R (SantaCruz Biotechnology, sc-5303) overnight at 4° C.; finally, treated with HRP-coupled secondary antibody for 1 hour, SuperSignal ECL Chemiluminescence Kit was used to detect the signal, and Image Lab software was used to analyze the density of the bands.
Mice were treated with TAT-5HT2AR-SV, TAT-5HT2AR-DV and TAT-5HT2AR-CT, and mice treated with TAT only were used as control (all treated by single intraperitoneal administration, 3 nmol/g). 1 hour after the treatment, the mice used were analyzed according to the co-immunoprecipitation method in Example 1, and the results are shown in FIG. 5.

[3] = test system: D1R and 5-HT2AR; assay: Direct Western blot of hippocampus tissue from treated stressed mice; assay type: in vivo, mouse; details: CRS, CMS and CSDS mice
Protocol: as §2
To further evaluate the ability of the polypeptide as an antidepressant, CRS, CMS and CSDS mouse models were constructed according to the method described in Example 2, respectively; 1 hour after construction, mouse models were treated with 10 μM TAT-5HT2AR-SV, TAT-5HT2AR-DV, TAT-5HT2AR-CT or TAT respectively (all treated by single intraperitoneal administration, 3 nmol/g); then FST and TST were performed on CRS, and FST, TST and sucrose preference test (SPT) were performed on CMS and CSDS mice respectively.
Further, the hippocampus tissue of treated CRS mice was directly analyzed by Western blot to investigate the expression levels of D1R and 5-HT2AR, and the results are shown in FIG. 10.
In addition, CRS, CMS and CSDS mice treated with TAT-5HT2AR-DV or TAT-5HT2AR-CT were tested respectively.

[4] = test system: mice; assay: OFT for residence time in central area; assay type: in vivo, mouse; details: single intraperitoneal 3 nmol/g, 1 hour after treatment, 5 min, vs TAT
Protocol: (§3) To evaluate the antianxiety-like effect of the polypeptide of the present invention, mice treated with TAT-5HT2AR-SV, TAT-5HT2AR-DV, TAT-5HT2AR-CT (all treated by single intraperitoneal administration, 3 nmol/g) were subjected to open field test (OFT) for measuring residence time in central area and elevated plus maze test (EPM) 1 hour after treatment, with TAT-treated mice as control. Methods for the tests are as follows:
OFT (for measuring the residence time in central area): open bottom surface was divided into 25 equal-area grids, with the middle 9 grids as the central area. 1 hour after treated with the polypeptide, mice were placed in the central area and recorded for 5 min, and the residence time of mice in the central area was recorded.

[5] = test system: 5-HT2AR and D1R; assay: Direct Western blot of hippocampus tissue from polypeptide-treated mice; assay type: in vivo; details: mouse hippocampus tissue, single intraperitoneal 3 nmol/g, vs TAT
Protocol: as §2
In addition, the hippocampus tissues of TAT-5HT2AR-SV and TAT-treated mice were directly analyzed by Western blot.

[6] = target: T2, 5-HT2AR/D1R complex; assay: Co-immunoprecipitation of hippocampus tissue from polypeptide-treated CRS, CMS and CSDS mice; assay type: in vivo; details: hippocampus tissue of stressed CRS, single intraperitoneal 3 nmol/g, vs TAT
Protocol: as §1
as §2, with “bands. […]” for “bands.”
The treated CRS, CMS and CSDS mice of Example 6 (TAT-5HT2AR-SV, TAT-5HT2AR-DV, TAT-5HT2AR-CT and TAT) were analyzed according to the co-immunoprecipitation method of Example 1, and the Western blot results were shown in FIG. 9, respectively.

[7] = test system: mice; assay: Elevated plus maze test (EPM); assay type: in vivo, mouse; details: single intraperitoneal 3 nmol/g, 1 hour after treatment, 5 min, vs TAT
Protocol: as §3
EPM: consists of two open arms (25 cm×8 cm) and two closed arms (25 cm×8 cm), with the intersection as the central area (8 cm×8 cm), which is 40 cm high from the ground. 1 hour after treated with the polypeptide, mice were placed in the central area facing the open arm, and were recorded for their free activities for 5 min. After each animal was tested, the device was wiped with 70% alcohol. The residence time at the open arm, the residence time at the closed arm, and the total movement distance of mice were recorded.

[8] = target: T3, 5-HT2A receptor (5-HT2AR), endogenous, from mouse hippocampus tissue (mouse, UniProt P35363 1-471); assay: co-immunoprecipitation from mouse hippocampus tissue with anti-5-HT2AR antibody, Western blot for D2R
T3 construct: Native protein in a tissue lysate, precipitated with a mouse anti-5-HT2AR antibody (sc-166775)
T3 sequence (P35363 whole entry): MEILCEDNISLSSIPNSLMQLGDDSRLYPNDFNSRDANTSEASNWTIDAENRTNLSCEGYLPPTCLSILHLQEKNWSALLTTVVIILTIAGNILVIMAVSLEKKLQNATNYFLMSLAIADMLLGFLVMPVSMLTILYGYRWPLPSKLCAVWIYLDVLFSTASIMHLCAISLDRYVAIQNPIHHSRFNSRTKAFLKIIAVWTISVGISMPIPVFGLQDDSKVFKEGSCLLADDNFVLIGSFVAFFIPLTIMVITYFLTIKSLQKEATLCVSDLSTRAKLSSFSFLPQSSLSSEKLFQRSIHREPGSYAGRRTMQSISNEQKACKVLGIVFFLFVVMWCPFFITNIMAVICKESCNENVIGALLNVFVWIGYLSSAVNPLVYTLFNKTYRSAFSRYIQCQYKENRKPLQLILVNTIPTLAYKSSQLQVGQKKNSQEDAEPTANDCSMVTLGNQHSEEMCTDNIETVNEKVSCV

T2 sequence (Q61616 whole entry, one chain of several): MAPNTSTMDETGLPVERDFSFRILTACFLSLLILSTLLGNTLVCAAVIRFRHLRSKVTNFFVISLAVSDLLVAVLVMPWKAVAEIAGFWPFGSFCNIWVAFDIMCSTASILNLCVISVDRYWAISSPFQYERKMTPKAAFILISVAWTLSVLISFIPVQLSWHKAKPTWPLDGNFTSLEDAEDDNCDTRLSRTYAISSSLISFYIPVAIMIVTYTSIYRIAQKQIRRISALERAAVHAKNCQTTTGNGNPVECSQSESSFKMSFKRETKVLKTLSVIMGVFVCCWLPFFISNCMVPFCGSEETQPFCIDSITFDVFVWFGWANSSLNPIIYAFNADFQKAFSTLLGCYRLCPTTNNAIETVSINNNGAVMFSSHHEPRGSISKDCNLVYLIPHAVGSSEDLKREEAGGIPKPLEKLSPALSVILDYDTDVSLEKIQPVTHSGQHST
T1 sequence (Q61616 whole entry, the tested form may be a part): as the sequence (Q61616 whole entry, one chain of several) above

Row | Molecule | pulldown of / affinity to D1R [1] | interaction of 5-HT2AR/D1R (co-immunoprecipitation) [2] | D1R and 5-HT2AR levels [3] | OFT residence time in the central region [4] | expression of 5-HT2AR and D1R [5] | interaction between 5-HT2AR and D1R (co-immunoprecipitation) [6] | EPM residence time at the closed arm [7] | EPM residence time at the open arm [7] | also measured
1 | GST-5HT2AR-DV: GST fusion protein containing a DV region of 5-HT2AR (D442-V471) (DCSMVALGKQHSEEASKDNSDGVNEKVSCV; not fully specified (N-terminus); cysteine pairing not given here; also: GST fusion protein) | can pulldown DIR | – | – | – | – | – | – | – | –
2 | GST-5HT2AR-SV: GST fusion protein containing a SV region of 5-HT2AR (S457-V471) (SKDNSDGVNEKVSCV; not fully specified (N-terminus); also: GST fusion protein) | has an affinity to D1R | – | – | – | – | – | – | – | –
3 | TAT-5HT2AR-DV: DV region (D442-V471) of 5-HT2AR fused with TAT (DCSMVALGKQHSEEASKDNSDGVNEKVSCV; cysteine pairing not given here; also: fused with TAT peptide at C-terminal region; UniProt P28223 442-471, looked up, fragment) | – | successfully destroyed the interaction of 5-HT2AR/D1R | did not cause a significant change | significantly increased the residence time | did not cause a significant change | significantly reduced the interaction between 5-HT2AR and D1R | decreased residence time at the closed arm | significantly increased residence time at the open arm | –
4 | TAT-5HT2AR-CT: CT region (K385-V471) of 5-HT2AR fused with TAT (peptide, UniProt P28223 385-471, looked up, fragment, C-terminal region fused with TAT peptide, CT region (K385-V471) of 5-HT2AR fused with TAT) KTYRSAFSRYIQCQYKENKKPLQLILVNTIPALAYKSSQLQMGQKKNSKQDAKTTDNDCSMVALGKQHSEEASKDNSDGVNEKVSCV | – | successfully destroyed the interaction of 5-HT2AR/D1R | did not cause a significant change | significantly increased the residence time | did not cause a significant change | significantly reduced the interaction between 5-HT2AR and D1R | decreased residence time at the closed arm | significantly increased residence time at the open arm | –
5 | GST-5HT2AR-CT: GST fusion protein containing the CT region of 5-HT2AR (K385-V471) (protein, left off: a dimerising Fc or GST) KTYRSAFSRYIQCQYKENKKPLQLILVNTIPALAYKSSQLQMGQKKNSKQDAKTTDNDCSMVALGKQHSEEASKDNSDGVNEKVSCV | can pulldown DIR | – | – | – | – | – | – | – | –
6 | Dopamine D2 receptor (D2R), endogenous, from mouse hippocampus tissue (receptor, UniProt P61168 1-444, looked up, Native protein in a tissue lysate, detected by Western blot with sc-5303) MDPLNLSWYDDDLERQNWSRPFNGSEGKPDRPHYNYYAMLLTLLIFIIVFGNVLVCMAVSREKALQTTTNYLIVSLAVADLLVATLVMPWVVYLEVVGEWKFSRIHCDIFVTLDVMMCTASILNLCAISIDRYTAVAMPMLYNTRYSSKRRVTVMIAIVWVLSFTISCPLLFGLNNTDQNECIIANPAFVVYSSIVSFYVPFIVTLLVYIKIYIVLRKRRKRVNTKRSSRAFRANLKTPLKGNCTHPEDMKLCTVIMKSNGSFPVNRRRMDAARRAQELEMEMLSSTSPPERTRYSPIPPSHHQLTLPDPSHHGLHSNPDSPAKPEKNGHAKIVNPRIAKFFEIQTMPNGKTRTSLKTMSRRKLSQQKEKKATQMLAIVLGVFIICWLPFFITHILNIHCDCNIPPVLYSAFTWLGYVNSAVNPIIYTTFNIEFRKAFMKILHC | – | – | – | – | – | – | – | – | binding result [8]: no binding
